# Measurements published in IntAct's records for PubMed 31515488.
# B1: Ubiquitin-conjugating enzyme E2 E3 (Homo sapiens), Q969T4 (parent)
# chain: MSSDRQRSDDESPSTSSGSSDADQRDPAAPEPEEQEERKPSATQQKKNTKLSSKTTAKLSTSAKRIQKELAEITLDPPPNCSAGPKGDNIYEWRSTILGPPGSVYEGGVFFLDITFSSDYPFKPPKVTFRTRIYHCNINSQGVICLDILKDNWSPALTISKVLLSICSLLTDCNPADPLVGSIATQYLTNRAEHDRIARQWTKRYAT
# partner: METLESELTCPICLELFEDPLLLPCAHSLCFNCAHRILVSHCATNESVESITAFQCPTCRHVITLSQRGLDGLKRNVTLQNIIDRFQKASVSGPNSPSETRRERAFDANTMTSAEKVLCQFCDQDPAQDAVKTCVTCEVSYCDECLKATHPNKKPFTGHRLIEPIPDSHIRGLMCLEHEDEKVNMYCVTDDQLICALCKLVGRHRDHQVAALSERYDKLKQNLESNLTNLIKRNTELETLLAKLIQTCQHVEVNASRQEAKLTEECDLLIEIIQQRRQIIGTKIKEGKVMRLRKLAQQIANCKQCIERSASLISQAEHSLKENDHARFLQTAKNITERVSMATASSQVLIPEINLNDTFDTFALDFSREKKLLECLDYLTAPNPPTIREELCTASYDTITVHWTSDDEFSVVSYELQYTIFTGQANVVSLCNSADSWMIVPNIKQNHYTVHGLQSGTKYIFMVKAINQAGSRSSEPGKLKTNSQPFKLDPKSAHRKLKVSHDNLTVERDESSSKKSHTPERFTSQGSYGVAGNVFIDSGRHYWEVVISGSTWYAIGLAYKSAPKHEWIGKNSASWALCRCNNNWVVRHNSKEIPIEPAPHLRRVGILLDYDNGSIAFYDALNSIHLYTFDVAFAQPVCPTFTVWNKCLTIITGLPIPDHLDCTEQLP
# B2: Armadillo repeat-containing protein 1 (Homo sapiens), Q9NVT9 (parent)
# chain: MNSSTSTMSEEPDALSVVNQLRDLAADPLNRRAIVQDQGCLPGLILFMDHPNPPVVHSALLALRYLAECRANREKMKGELGMMLSLQNVIQKTTTPGETKLLASEIYDILQSSNMADGDSFNEMNSRRRKAQFFLGTTNKRAKTVVLHIDGLDDTSRRNLCEEALLKIKGVISFTFQMAVQRCVVRIRSDLKAEALASAIASTKVMKAQQVVKSESGEEMLVPFQDTPVEVEQNTELPDYLPEDESPTKEQDKAVSRVGSHPEGGASWLSTAANFLSRSFYW
# B3: Myogenin (Homo sapiens), P15173 (parent)
# chain: MELYETSPYFYQEPRFYDGENYLPVHLQGFEPPGYERTELTLSPEAPGPLEDKGLGTPEHCPGQCLPWACKVCKRKSVSVDRRRAATLREKRRLKKVNEAFEALKRSTLLNPNQRLPKVEILRSAIQYIERLQALLSSLNQEERDLRYRGGGGPQPGVPSECSSHSASCSPEWGSALEFSANPGDHLLTADPTDAHNLHSLTSIVDSITVEDVSVAFPDETMPN
# partner: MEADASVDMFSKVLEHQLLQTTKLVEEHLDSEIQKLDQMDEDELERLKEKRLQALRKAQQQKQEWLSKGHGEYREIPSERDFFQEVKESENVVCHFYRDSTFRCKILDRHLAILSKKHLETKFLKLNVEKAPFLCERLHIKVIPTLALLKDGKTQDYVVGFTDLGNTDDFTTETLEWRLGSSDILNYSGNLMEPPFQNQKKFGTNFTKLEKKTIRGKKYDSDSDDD
# B4: Zinc finger protein Aiolos (Homo sapiens), Q9UKT9 (parent)
# chain: MEDIQTNAELKSTQEQSVPAESAAVLNDYSLTKSHEMENVDSGEGPANEDEDIGDDSMKVKDEYSERDENVLKSEPMGNAEEPEIPYSYSREYNEYENIKLERHVVSFDSSRPTSGKMNCDVCGLSCISFNVLMVHKRSHTGERPFQCNQCGASFTQKGNLLRHIKLHTGEKPFKCHLCNYACQRRDALTGHLRTHSVEKPYKCEFCGRSYKQRSSLEEHKERCRTFLQSTDPGDTASAEARHIKAEMGSERALVLDRLASNVAKRKSSMPQKFIGEKRHCFDVNYNSSYMYEKESELIQTRMMDQAINNAISYLGAEALRPLVQTPPAPTSEMVPVISSMYPIALTRAEMSNGAPQELEKKSIHLPEKSVPSERGLSPNNSGHDSTDTDSNHEERQNHIYQQNHMVLSRARNGMPLLKEVPRSYELLKPPPICPRDSVKVINKEGEVMDVYRCDHCRVLFLDYVMFTIHMGCHGFRDPFECNMCGYRSHDRYEFSSHIARGEHRALLK
# partner: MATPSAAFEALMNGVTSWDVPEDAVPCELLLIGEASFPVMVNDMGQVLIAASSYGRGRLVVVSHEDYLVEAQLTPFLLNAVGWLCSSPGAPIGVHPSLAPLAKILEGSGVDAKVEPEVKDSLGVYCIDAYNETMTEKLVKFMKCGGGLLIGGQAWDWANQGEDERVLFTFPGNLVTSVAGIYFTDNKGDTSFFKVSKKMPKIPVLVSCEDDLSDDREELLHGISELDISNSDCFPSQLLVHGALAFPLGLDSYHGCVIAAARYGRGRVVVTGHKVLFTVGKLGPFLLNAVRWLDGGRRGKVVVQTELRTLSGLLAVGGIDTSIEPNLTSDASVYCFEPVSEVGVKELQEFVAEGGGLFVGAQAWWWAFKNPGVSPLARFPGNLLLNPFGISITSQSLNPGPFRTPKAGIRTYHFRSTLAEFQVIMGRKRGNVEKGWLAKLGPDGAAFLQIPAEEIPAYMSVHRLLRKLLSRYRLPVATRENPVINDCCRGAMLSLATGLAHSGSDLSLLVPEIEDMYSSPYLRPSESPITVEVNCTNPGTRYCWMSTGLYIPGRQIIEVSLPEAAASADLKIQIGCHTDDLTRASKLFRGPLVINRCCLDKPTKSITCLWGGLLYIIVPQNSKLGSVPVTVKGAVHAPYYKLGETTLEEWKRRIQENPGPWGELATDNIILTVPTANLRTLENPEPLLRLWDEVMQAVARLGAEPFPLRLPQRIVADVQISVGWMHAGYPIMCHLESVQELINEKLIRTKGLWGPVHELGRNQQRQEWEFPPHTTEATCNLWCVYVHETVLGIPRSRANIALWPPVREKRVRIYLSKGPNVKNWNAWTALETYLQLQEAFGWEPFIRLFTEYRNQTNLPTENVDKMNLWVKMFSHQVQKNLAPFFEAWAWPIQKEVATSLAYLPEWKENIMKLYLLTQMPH
# B5: Keratin-associated protein 3-2 (Homo sapiens), Q9BYR7 (parent)
# chain: MDCCASRSCSVPTGPATTICSSDKSCRCGVCLPSTCPHTVWLLEPICCDNCPPPCHIPQPCVPTCFLLNSCQPTPGLETLNLTTFTQPCCEPCLPRGC
# partner: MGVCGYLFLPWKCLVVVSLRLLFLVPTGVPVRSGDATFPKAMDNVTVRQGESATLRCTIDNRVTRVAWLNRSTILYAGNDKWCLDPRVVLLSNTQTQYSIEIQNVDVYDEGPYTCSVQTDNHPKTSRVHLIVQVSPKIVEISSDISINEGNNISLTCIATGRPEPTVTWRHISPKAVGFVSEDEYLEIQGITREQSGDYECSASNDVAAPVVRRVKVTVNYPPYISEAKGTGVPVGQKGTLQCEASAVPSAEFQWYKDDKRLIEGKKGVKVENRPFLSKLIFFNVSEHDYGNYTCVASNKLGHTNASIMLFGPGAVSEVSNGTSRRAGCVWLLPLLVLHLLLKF
# B6: Probable RNA-binding protein EIF1AD (Homo sapiens), Q8N9N8 (parent)
# chain: MSQATKRKHVVKEVLGEHIVPSDQQQIVRVLRTPGNNLHEVETAQGQRFLVSMPSKYRKNIWIKRGDFLIVDPIEEGEKVKAEISFVLCKDHVRSLQKEGFWPEAFSEVAEKHNNRNRQTQPELPAEPQLSGEESSSEDDSDLFVNTNRRQYHESEEESEEEEAA
# partner: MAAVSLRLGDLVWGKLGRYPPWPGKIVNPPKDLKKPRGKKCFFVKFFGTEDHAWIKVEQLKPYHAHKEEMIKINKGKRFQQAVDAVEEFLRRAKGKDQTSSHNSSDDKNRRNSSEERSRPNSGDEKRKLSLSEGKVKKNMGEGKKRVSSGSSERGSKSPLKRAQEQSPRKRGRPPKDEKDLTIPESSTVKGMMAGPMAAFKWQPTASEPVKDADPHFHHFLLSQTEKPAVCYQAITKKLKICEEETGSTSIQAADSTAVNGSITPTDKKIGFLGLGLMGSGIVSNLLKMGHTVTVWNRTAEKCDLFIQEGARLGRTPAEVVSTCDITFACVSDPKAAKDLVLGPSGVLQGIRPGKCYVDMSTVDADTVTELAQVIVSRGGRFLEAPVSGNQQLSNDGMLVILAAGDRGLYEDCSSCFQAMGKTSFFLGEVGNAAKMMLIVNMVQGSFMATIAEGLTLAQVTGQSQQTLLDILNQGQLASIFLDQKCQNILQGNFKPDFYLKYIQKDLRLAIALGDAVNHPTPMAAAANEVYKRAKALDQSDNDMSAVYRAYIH
# B7: Serine/threonine-protein kinase PAK 5 (Homo sapiens), Q9P286 (parent)
# chain: MFGKKKKKIEISGPSNFEHRVHTGFDPQEQKFTGLPQQWHSLLADTANRPKPMVDPSCITPIQLAPMKTIVRGNKPCKETSINGLLEDFDNISVTRSNSLRKESPPTPDQGASSHGPGHAEENGFITFSQYSSESDTTADYTTEKYREKSLYGDDLDPYYRGSHAAKQNGHVMKMKHGEAYYSEVKPLKSDFARFSADYHSHLDSLSKPSEYSDLKWEYQRASSSSPLDYSFQFTPSRTAGTSGCSKESLAYSESEWGPSLDDYDRRPKSSYLNQTSPQPTMRQRSRSGSGLQEPMMPFGASAFKTHPQGHSYNSYTYPRLSEPTMCIPKVDYDRAQMVLSPPLSGSDTYPRGPAKLPQSQSKSGYSSSSHQYPSGYHKATLYHHPSLQSSSQYISTASYLSSLSLSSSTYPPPSWGSSSDQQPSRVSHEQFRAALQLVVSPGDPREYLANFIKIGEGSTGIVCIATEKHTGKQVAVKKMDLRKQQRRELLFNEVVIMRDYHHDNVVDMYSSYLVGDELWVVMEFLEGGALTDIVTHTRMNEEQIATVCLSVLRALSYLHNQGVIHRDIKSDSILLTSDGRIKLSDFGFCAQVSKEVPKRKSLVGTPYWMAPEVISRLPYGTEVDIWSLGIMVIEMIDGEPPYFNEPPLQAMRRIRDSLPPRVKDLHKVSSVLRGFLDLMLVREPSQRATAQELLGHPFLKLAGPPSCIVPLMRQYRHH
# partner: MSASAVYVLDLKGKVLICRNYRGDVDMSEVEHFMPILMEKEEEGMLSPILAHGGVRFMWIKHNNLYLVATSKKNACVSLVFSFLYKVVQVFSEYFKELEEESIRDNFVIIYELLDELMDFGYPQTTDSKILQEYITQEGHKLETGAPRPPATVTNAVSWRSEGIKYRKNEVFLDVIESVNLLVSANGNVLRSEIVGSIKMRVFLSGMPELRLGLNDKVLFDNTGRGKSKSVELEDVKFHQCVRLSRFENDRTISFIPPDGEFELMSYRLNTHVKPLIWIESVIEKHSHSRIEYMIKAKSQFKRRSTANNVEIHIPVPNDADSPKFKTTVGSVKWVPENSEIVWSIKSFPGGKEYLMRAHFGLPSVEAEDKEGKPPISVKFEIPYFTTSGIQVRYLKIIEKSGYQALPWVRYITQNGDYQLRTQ
# Variants of: B1
# Conditions: with tri18_human MID1, O15344
row,effect of a mutation on the interaction,Variant
1,with no effect,S117T

# Variants of: B2
# Conditions: with mfr1l_human MTFR1L
row,effect of a mutation on the interaction,Variant
1,with no effect,M83T

# Variants of: B3
# Conditions: with txnd9_human TXNDC9, O14530
row,effect of a mutation on the interaction,Variant
1,with no effect,P49H
2,disrupting interaction strength,A181T

# Variants of: B4
# Conditions: with tcaf1_human TCAF1, Q9Y4C2
row,effect of a mutation on the interaction,Variant
1,with no effect,N119D
2,with no effect,A24V

# Variants of: B5
# Conditions: with ntri_human NTM
row,effect of a mutation on the interaction,Variant
1,with no effect,S8G
2,with no effect,R27C

# Variants of: B6
# Conditions: with glyr1_human GLYR1, Q49A26
row,effect of a mutation on the interaction,Variant
1,with no effect,R48C

# Variants of: B7
# Conditions: with ap1m1_human AP1M1, Q9BXS5
row,effect of a mutation on the interaction,Variant
1,with no effect,S511N
2,with no effect,V604I
